In article PMC5159831, “Harnessing the natural inhibitory domain to control TNFα Converting Enzyme (TACE) activity in vivo” (Scientific Reports, 2016):

What was measured:
[1] = biological target: recombinant TACE catalytic domain; experiment: cell-based or functional assay
[2] = biological target: the molecule itself; experiment: SDS-PAGE under non-reducing conditions; purified TPD; 40 kDa band = covalent (disulfide-linked) dimer, 20 kDa band = monomer

recombinant TACE catalytic domain, sequence (P78536 215-671): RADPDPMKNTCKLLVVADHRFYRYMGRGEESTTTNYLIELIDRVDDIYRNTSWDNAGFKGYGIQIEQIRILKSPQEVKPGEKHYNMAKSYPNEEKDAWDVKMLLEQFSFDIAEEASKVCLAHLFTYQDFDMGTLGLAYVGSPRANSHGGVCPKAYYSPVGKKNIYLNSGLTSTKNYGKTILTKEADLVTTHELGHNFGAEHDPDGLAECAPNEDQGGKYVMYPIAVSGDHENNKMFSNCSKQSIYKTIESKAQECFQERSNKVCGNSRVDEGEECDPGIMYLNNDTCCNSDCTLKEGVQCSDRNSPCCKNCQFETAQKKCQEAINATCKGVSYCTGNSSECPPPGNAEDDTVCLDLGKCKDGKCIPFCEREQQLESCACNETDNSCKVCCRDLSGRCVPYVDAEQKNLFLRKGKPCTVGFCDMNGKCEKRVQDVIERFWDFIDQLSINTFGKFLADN

Row | IC50 of inhibition of the enzyme's hydrolysis of a fluorogenic peptide (10 nM TACE, Mca-PLAQAV-Dpa-RSSSR 10 μM, 37 °C, 30 min pre-incubation with TPD) [1] | IC50 of inhibition of the enzyme's hydrolysis of a fluorogenic peptide (10 nM TACE, 37 °C) [1] | Binder | stoichiometry N [2]
1 | 0.145 µM | – | TACE prodomain (TPD), wild type, Asp23-Arg214 (domain or fragment, human, UniProt P78536 23-214, looked up, prodomain of human ADAM17/TACE, residues Asp23-Arg214; The methods say Asp24-Arg214, but the DNA fits Asp23; The WT runs as a disulfide-linked dimer without reducing agent; also called WT TPD; TPD WT; source: E. coli BL21 (DE3), pET28, soluble fraction, purified (Ni column, HiTrap Q, Superdex 75)) DPGFGPHQRLEKLDSLLSDYDILSLSNIQQHSVRKRDLQTSTHVETLLTFSALKRHFKLYLTSSTERFSQNFKVVVVDGKNESEYTVKWQDFFTGHVVGEPDSRVLAHIRDDDVIIRINTDGAEYNIEPLWRFVNDTKDKRMLVYKSEDIKNVSRLQSPKVCGYLKVDNEELLPKGLVDREPPEELVHRVKR | 2
2 | – | 0.033 µM | TACE prodomain (TPD) C184A (domain or fragment, human, UniProt P78536 23-214, looked up) DPGFGPHQRLEKLDSLLSDYDILSLSNIQQHSVRKRDLQTSTHVETLLTFSALKRHFKLYLTSSTERFSQNFKVVVVDGKNESEYTVKWQDFFTGHVVGEPDSRVLAHIRDDDVIIRINTDGAEYNIEPLWRFVNDTKDKRMLVYKSEDIKNVSRLQSPKVAGYLKVDNEELLPKGLVDREPPEELVHRVKR | –
